For experiment [1], the target named is T1, hLRRC33-proTGFβ1 (human, UniProt Q86YC3 19-650; P01137 30-390, limits assumed).
T1 construct: LLC as m1; Same id used for the cell-surface complex in reporter assays; also called human LRRC33-proTGFβ1 complex; LRRC33-ProTGFb1
The experiment is described as follows: BLI (Octet). Background: In BLI a coated tip is dipped into the sample, and binding shifts an interference pattern.

Experiment [2] has as its target T2, hLTBP3-proTGFβ1 (human, UniProt Q9NS15 44-1303; P01137 30-390, limits assumed).
T2 construct: LLC as m1; Same id used for the cell-made complex in reporter assays; also called human LTBP3-proTGFβ1 complex; LTBP3-ProTGFb1
The experiment is described as follows: BLI (Octet).

The target in experiment [3] is T3, hGARP-proTGFβ1 (human, UniProt Q14392 18-627; P01137 30-390, limits assumed).
T3 construct: LLC as m1; Same id used for the cell-surface complex in reporter assays; also called human GARP-proTGFβ1 complex; GARP-ProTGFb1
The experiment in a line: BLI (Octet).

The target in experiment [4] is T4, hLTBP1-proTGFβ1 (human, UniProt Q14766 347-1721; P01137 30-390, limits assumed).
T4 construct: Large latent complex (LLC): proTGFβ1 dimer disulfide-linked to one presenting molecule; recombinant, purified, biotinylated in BLI/SPR; The same id is used for the complex made by transfected cells in the reporter assays; also called human LTBP1-proTGFβ1 complex; LTBP1-ProTGFb1
The experiment in a line: BLI (Octet).

Experiment [5] concerns the target T1, hLRRC33-proTGFβ1. The experiment in a line: cell-based or functional assay.
In experiment [6] the target is T2, hLTBP3-proTGFβ1. The experiment in a line: cell-based or functional assay.
Experiment [7] addresses T3, hGARP-proTGFβ1. The experiment is described as follows: cell-based or functional assay.
In experiment [8] the target is T4, hLTBP1-proTGFβ1. The experiment in a line: cell-based or functional assay.
The target in experiment [9] is T1, hLRRC33-proTGFβ1. The experiment in a line: MSD-SET, hIgG4. The procedure: (§1) For solution equilibrium titration-based binding assays, protein complexes that comprise one of the presenting molecules such as those shown above may be employed as antigen (presenting molecule-TGFβ1 complex, or an LLC). Test antibodies are allowed to form antigen-antibody complex in solution. Antigen-antibody reaction mixtures are incubated to allow an equilibrium to be reached; the amount of the antigen-antibody complex present in the assay reactions can be measured by suitable means well known in the art. As compared to BLI-based assays, SET-based assays are less affected by on/off rates of the antigen-antibody complex, allowing sensitive detection of very high affinity interactions.

Experiment [10] has as its target T2, hLTBP3-proTGFβ1. The experiment in a line: MSD-SET, hIgG4. The procedure: as §1
Experiment [11] addresses T3, hGARP-proTGFβ1. The experiment is described as follows: MSD-SET, hIgG4. The procedure:
as §1

Experiment [12] deals with T4, hLTBP1-proTGFβ1. The experiment in a line: MSD-SET, hIgG4. The method, then: as §1

Broadly, the Kd is the constant that tells how readily two partners part at equilibrium.

T3 sequence (Q14392 18-627 limits assumed, chain 1 of 2): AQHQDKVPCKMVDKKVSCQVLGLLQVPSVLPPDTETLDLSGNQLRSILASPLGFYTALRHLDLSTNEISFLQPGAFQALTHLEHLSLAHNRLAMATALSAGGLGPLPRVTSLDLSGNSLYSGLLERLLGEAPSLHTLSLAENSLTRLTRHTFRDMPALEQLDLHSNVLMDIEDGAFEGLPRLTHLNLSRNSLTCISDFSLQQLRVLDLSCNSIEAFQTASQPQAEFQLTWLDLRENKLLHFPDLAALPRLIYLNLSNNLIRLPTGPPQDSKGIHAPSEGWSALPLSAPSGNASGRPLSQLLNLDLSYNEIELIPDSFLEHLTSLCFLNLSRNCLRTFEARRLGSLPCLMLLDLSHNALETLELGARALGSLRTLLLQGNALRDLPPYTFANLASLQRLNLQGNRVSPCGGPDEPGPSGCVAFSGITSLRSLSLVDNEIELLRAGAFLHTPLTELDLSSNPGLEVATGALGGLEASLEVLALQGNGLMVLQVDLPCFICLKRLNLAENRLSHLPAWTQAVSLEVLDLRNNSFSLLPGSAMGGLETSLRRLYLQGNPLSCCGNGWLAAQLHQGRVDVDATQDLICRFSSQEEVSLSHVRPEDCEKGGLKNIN
T3 sequence (P01137 30-390 limits assumed, chain 2 of 2): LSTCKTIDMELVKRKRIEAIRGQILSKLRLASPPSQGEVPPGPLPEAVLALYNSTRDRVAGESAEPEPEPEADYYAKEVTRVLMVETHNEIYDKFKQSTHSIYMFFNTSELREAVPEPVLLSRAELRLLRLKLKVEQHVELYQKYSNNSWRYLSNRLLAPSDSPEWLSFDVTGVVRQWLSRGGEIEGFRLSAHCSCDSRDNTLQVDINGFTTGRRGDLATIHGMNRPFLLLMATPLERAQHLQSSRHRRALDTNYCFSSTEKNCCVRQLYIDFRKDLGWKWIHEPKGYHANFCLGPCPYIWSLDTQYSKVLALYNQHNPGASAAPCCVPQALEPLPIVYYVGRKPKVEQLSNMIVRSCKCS
T2 sequence (Q9NS15 44-1303 limits assumed, chain 1 of 2): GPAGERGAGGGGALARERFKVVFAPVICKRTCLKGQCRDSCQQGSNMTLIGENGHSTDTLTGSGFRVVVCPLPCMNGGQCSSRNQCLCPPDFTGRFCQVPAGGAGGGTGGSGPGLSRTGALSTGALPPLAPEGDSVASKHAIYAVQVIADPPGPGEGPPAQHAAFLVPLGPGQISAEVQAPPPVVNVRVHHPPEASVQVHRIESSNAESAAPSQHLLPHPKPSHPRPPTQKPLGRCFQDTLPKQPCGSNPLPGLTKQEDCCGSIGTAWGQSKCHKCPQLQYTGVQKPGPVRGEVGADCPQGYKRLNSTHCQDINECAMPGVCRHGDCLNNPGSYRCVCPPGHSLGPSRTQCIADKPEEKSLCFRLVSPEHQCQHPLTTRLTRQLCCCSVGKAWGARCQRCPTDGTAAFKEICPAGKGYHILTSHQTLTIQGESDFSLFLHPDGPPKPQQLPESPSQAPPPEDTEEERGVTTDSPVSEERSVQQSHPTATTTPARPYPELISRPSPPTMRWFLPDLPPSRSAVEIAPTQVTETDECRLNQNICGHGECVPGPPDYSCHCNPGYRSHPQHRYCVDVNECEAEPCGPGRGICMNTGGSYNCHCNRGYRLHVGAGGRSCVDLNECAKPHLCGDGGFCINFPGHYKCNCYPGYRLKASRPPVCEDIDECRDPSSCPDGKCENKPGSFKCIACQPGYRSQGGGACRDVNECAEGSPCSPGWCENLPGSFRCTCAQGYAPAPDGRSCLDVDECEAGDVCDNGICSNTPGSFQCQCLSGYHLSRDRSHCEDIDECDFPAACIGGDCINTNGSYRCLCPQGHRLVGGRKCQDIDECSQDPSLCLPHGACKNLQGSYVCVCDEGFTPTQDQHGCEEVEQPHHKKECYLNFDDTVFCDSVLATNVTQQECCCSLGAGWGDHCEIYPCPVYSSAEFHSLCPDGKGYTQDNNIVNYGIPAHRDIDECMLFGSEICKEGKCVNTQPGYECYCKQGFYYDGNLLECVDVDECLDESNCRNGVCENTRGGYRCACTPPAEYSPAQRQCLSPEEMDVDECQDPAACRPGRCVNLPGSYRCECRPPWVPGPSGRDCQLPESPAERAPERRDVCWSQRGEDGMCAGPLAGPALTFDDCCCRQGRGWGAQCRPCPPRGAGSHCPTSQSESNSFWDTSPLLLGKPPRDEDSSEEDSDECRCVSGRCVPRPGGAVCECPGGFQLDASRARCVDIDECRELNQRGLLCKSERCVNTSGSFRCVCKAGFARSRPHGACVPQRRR
T2 sequence (P01137 30-390 limits assumed, chain 2 of 2): as the sequence (P01137 30-390 limits assumed, chain 2 of 2) above
T1 sequence (Q86YC3 19-650 limits assumed, chain 1 of 2): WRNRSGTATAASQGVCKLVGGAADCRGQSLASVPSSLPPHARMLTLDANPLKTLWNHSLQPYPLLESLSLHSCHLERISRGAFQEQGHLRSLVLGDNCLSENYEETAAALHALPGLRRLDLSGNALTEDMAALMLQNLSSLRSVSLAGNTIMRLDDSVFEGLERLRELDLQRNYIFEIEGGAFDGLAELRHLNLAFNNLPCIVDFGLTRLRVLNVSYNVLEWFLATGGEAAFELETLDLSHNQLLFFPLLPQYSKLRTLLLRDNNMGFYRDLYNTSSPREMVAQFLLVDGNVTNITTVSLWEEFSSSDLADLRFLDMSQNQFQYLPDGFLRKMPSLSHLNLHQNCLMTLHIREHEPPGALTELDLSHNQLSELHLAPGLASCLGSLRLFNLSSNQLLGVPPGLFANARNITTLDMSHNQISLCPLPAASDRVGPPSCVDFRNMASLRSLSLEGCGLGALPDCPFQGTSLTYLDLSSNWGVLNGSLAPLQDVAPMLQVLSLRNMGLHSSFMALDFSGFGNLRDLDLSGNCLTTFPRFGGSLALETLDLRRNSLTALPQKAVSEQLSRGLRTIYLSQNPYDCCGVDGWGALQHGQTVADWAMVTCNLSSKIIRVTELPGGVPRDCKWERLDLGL
T1 sequence (P01137 30-390 limits assumed, chain 2 of 2): as the sequence (P01137 30-390 limits assumed, chain 2 of 2) above
T4 sequence (Q14766 347-1721 limits assumed, chain 1 of 2): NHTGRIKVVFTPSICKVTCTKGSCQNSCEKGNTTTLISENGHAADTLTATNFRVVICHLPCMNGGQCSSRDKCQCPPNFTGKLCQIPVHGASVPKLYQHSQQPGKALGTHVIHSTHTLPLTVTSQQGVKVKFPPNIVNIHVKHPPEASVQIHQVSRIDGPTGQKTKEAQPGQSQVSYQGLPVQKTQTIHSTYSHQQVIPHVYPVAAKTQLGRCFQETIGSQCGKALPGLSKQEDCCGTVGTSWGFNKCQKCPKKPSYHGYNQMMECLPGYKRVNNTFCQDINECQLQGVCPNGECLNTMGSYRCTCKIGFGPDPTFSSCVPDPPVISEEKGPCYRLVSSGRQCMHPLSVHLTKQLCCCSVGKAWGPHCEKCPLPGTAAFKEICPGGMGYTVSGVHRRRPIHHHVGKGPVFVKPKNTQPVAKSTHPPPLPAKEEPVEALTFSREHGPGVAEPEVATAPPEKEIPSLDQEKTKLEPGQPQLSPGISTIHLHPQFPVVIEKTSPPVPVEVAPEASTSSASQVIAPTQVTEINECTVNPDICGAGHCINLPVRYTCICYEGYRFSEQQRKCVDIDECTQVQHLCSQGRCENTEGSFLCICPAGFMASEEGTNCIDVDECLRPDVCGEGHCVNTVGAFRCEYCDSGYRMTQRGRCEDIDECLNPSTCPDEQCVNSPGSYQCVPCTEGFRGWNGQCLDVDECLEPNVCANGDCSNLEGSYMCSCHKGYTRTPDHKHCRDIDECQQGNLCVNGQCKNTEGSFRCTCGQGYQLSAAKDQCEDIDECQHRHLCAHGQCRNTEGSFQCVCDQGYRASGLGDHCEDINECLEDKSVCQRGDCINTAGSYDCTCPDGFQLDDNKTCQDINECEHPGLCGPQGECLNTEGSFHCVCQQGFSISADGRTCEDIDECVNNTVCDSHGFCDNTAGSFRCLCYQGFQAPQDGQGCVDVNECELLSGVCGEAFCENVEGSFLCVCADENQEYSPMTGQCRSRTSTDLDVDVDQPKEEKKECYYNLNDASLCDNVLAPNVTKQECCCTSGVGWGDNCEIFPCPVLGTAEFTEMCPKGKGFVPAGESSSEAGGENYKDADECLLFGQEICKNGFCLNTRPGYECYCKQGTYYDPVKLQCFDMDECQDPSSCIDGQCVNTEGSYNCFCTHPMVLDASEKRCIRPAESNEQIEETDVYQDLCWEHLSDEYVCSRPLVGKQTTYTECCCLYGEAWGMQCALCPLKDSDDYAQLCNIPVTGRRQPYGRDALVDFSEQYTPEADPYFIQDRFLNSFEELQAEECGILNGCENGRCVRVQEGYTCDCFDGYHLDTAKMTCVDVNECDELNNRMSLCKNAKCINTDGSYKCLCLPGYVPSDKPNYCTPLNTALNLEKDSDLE
T4 sequence (P01137 30-390 limits assumed, chain 2 of 2): as the sequence (P01137 30-390 limits assumed, chain 2 of 2) above

B1: Ab21 (antibody, V domains shown)
VH: EVQLVESGGGLVQPGGSLRLSCAASGFTFSSFSMDWVRQAPGKGLEWVSYISPDASTIYYADSVKGRFTISRDNAKNSLYLQMNSLRAEDTAVYYCARGVLDYGDMLDPWGQGTLVTVSS
VL: DIQMTQSPSSLSASVGDRVTITCQASQDITNYLNWYQQKPGKAPKLLIYDASNLETGVPSRFSGSGSGTDFTFTISSLQPEDIATYYCQQADNHPPWTFGGGTKVEIK
Consider B1, for which the Kd with hLRRC33-proTGFβ1 [1] was 0.455 nM; with hLTBP3-proTGFβ1 [2], 0.268 nM; in the experiment with hGARP-proTGFβ1 [3], 0.833 nM; in the experiment with hLTBP1-proTGFβ1 [4] it was 0.225 nM. The “IC50, reporter cell assay” value in the experiment with hLRRC33-proTGFβ1 [5] came to 0.6 nM; with hLTBP3-proTGFβ1 [6] it was 0.8 nM; with hGARP-proTGFβ1 [7], 0.4 nM; with hLTBP1-proTGFβ1 [8] it was 1.6 nM.

B2: Ab5 (antibody, V domains shown)
VH: EVQLVESGGGLVQPGGSLRLSCAASGFTFSSFSMDWVRQAPGKGLEWVSYISPDASTIYYADSVKGRFTISRDNAKNSLYLQMNSLRAEDTAVYYCARGVLDYGDMLDPWGQGTLVTVSS
VL: DIQMTQSPSSLSASVGDRVTITCQASQDITNYLNWYQQKPGKAPKLLIYDASNLETGVPSRFSGSGSGTDFTFTISSLQPEDIATYYCQQADNHPPWTFGGGTKVEIK
As for B2, the “IC50, reporter cell assay” value is 0.6 nM in the experiment with hLRRC33-proTGFβ1 [5], 1 nM with hLTBP3-proTGFβ1 [6], 0.1 nM with hGARP-proTGFβ1 [7] and 1.3 nM with hLTBP1-proTGFβ1 [8].

B3: Ab27 (antibody, V domains shown)
VH: EVQLVESGGGLVQPGGSLRLSCAASGFTFSFYAMNWVRQAPGKGLEWVSYISPDASTIYYADSVKGRFTISRDNAKNSLYLQMNSLRAEDTAVYYCARGVLDYGDMLDPWGQGTLVTVSS
VL: DIQMTQSPSSLSASVGDRVTITCQASQDITNYLNWYQQKPGKAPKLLIYDASNLETGVPSRFSGSGSGTDFTFTISSLQPEDIATYYCQQADNHPPWTFGGGTKVEIK
On to B3, for which the Kd in the experiment with hLRRC33-proTGFβ1 [1] amounted to 0.299 nM; with hLTBP3-proTGFβ1 [2], 0.238 nM; with hGARP-proTGFβ1 [3] it was 0.424 nM; in the experiment with hLTBP1-proTGFβ1 [4], 0.178 nM.

B4: Ab24 (antibody, V domains shown)
VH: EVQLVESGGGLVQPGRSLRLSCAASGFTFSSFAMYWVRQAPGKGLEWVSYISPDASTIYYADSVKGRFTISRDNAKNSLYLQMNSLRAEDTAVYYCARGVLDYGDMLDPWGQGTLVTVSS
VL: DIQMTQSPSSLSASVGDRVTITCQASQDITNYLNWYQQKPGKAPKLLIYDASNLETGVPSRFSGSGSGTDFTFTISSLQPEDIATYYCQQADNHPPWTFGGGTKVEIK
For the molecule B4, the Kd in the experiment with hLRRC33-proTGFβ1 [1] was found to be 0.41 nM; with hLTBP3-proTGFβ1 [2] it was 0.198 nM; with hGARP-proTGFβ1 [3], 0.665 nM; in the experiment with hLTBP1-proTGFβ1 [4], 0.246 nM; with hLRRC33-proTGFβ1 [9], 0.18 nM; in the experiment with hLTBP3-proTGFβ1 [10], 0.021 nM. For the same molecule, the Kd in the experiment with hGARP-proTGFβ1 [11] amounted to 0.019 nM; in the experiment with hLTBP1-proTGFβ1 [12], 0.024 nM.

B5: Ab25 (antibody, V domains shown)
VH: EVQLVESGGGLVQPGGSLRLSCAASGFTFGSFSMDWVRQAPGKGLEWVSYISPDASTIYYADSVKGRFTISRDNAKNSLYLQMNSLRAEDTAVYYCARGVLDYGDMLDPWGQGTLVTVSS
VL: DIQMTQSPSSLSASVGDRVTITCQASQDITNYLNWYQQKPGKAPKLLIYDASNLETGVPSRFSGSGSGTDFTFTISSLQPEDIATYYCQQADNHPPWTFGGGTKVEIK
Turning to B5, the Kd with hLRRC33-proTGFβ1 [1] was determined as 0.409 nM; with hLTBP3-proTGFβ1 [2], 0.152 nM; with hGARP-proTGFβ1 [3] it was 0.488 nM; with hLTBP1-proTGFβ1 [4] it was 0.217 nM. The “IC50, reporter cell assay” value in the experiment with hLRRC33-proTGFβ1 [5] is 0.7 nM; with hLTBP3-proTGFβ1 [6], 0.51 nM; with hGARP-proTGFβ1 [7], 0.4 nM; with hLTBP1-proTGFβ1 [8] it was 6.1 nM.

B6: Ab32 (antibody, V domains shown)
VH: EVQLVESGGGLVQPGGSLRLSCAASGFTFSSFSMNWVRQAPGKGLEWVSYISPSADTIYYADSVKGRFTISRDNAKNTLYLQMNSLRAEDTAVYYCARGVWDMGDMLDPWGQGTLVTVSS
VL: DIQMTQSPSSLSASVGDRVTITCQASQDITNYLNWYQQKPGKAPKLLIYDASNLETGVPSRFSGSGSGTDFTFTISSLQPEDIATYYCQQADNHPPWTFGGGTKVEIK
Consider B6, for which the dissociation constant Kd in the experiment with hLRRC33-proTGFβ1 [1] was determined as 0.698 nM; in the experiment with hLTBP3-proTGFβ1 [2], 0.215 nM; in the experiment with hGARP-proTGFβ1 [3], 0.496 nM; with hLTBP1-proTGFβ1 [4], 0.269 nM; with hLRRC33-proTGFβ1 [9] it was 0.087 nM; with hLTBP3-proTGFβ1 [10] it was 0.026 nM. For the same molecule, the equilibrium dissociation constant (Kd) was found to be 0.015 nM with hGARP-proTGFβ1 [11] and 0.037 nM in the experiment with hLTBP1-proTGFβ1 [12].

B7: Ab22 (antibody, V domains shown)
VH: EVQLVESGGGLVQPGGSLRLSCAASGFTFGSFSMNWVRQAPGKGLEWVSYIHSDASTIYYADSVKGRFTISRDNAKNSLYLQMNSLRAEDTAVYYCARGVLDYGDMLDPWGQGTLVTVSS
VL: DIQMTQSPSSLSASVGDRVTITCQASQDITNYLNWYQQKPGKAPKLLIYDASNLETGVPSRFSGSGSGTDFTFTISSLQPEDIATYYCQQADNHPPWTFGGGTKVEIK
Turning to B7, the Kd amounted to 0.415 nM with hLRRC33-proTGFβ1 [1]; 0.329 nM with hLTBP3-proTGFβ1 [2]; 0.974 nM with hGARP-proTGFβ1 [3]; 0.318 nM with hLTBP1-proTGFβ1 [4]; 0.2 nM in the experiment with hLRRC33-proTGFβ1 [9]; 0.033 nM with hLTBP3-proTGFβ1 [10]. Besides, the Kd in the experiment with hGARP-proTGFβ1 [11] is 0.027 nM; with hLTBP1-proTGFβ1 [12] it was 0.05 nM.

B8: Ab23 (antibody, V domains shown)
VH: EVQLVESGGGLVQPGGSLRLSCAASGFTFSSFSMNWVRQAPGKGLEWVSYISPSADTIYYADSVKGRFTISRDNAKNTLYLQMNSLRAEDTAVYYCARGVLDYGDMLDPWGQGTLVTVSS
VL: DIQMTQSPSSLSASVGDRVTITCQASQDITNYLNWYQQKPGKAPKLLIYDASNLETGVPSRFSGSGSGTDFTFTISSLQPEDIATYYCQQADNHPPWTFGGGTKVEIK
On to B8, for which the Kd with hLRRC33-proTGFβ1 [1] came to 0.455 nM; in the experiment with hLTBP3-proTGFβ1 [2] it was 0.468 nM; with hGARP-proTGFβ1 [3] it was 1.34 nM; in the experiment with hLTBP1-proTGFβ1 [4], 0.417 nM. Also, the “IC50, reporter cell assay” value in the experiment with hLRRC33-proTGFβ1 [5] amounted to 0.6 nM; in the experiment with hLTBP3-proTGFβ1 [6] it was 0.9 nM; in the experiment with hGARP-proTGFβ1 [7], 0.3 nM; in the experiment with hLTBP1-proTGFβ1 [8] it was 0.8 nM.

B9: Ab31 (antibody, V domains shown)
VH: EVQLVESGGGLVQPGGSLRLSCAASGFTFSSFSMDWVRQAPGKGLEWVSYISPDASTIYYADSVKGRFTISRDNAKNTLYLQMNSLRAEDTAVYYCARAVLDYGDMLDPWGQGTLVTVSS
VL: DIQMTQSPSSLSASVGDRVTITCQASQDITNYLNWYQQKPGKAPKLLIYDASNLETGVPSRFSGSGSGTDFTFTISSLQPEDIATYYCQQADNHPPWTFGGGTKVEIK
Regarding B9, the Kd with hLRRC33-proTGFβ1 [1] is 0.41 nM; with hLTBP3-proTGFβ1 [2], 0.181 nM; in the experiment with hGARP-proTGFβ1 [3], 0.581 nM; in the experiment with hLTBP1-proTGFβ1 [4] it was 0.236 nM; with hLRRC33-proTGFβ1 [9] it was 0.096 nM; with hLTBP3-proTGFβ1 [10], 0.014 nM. Also, the Kd with hGARP-proTGFβ1 [11] and in the experiment with hLTBP1-proTGFβ1 [12] was 0.019 nM each time.

B10: Ab28 (antibody, V domains shown)
VH: EVQLVESGGGLVQPGGSLRLSCAASGFTFSSFSMDWVRQAPGKGLEWVSYISPDASTIYYADSVKGRFTISRDNAKNSLYLQMNSLRAEDTAVYYCVRGVLDYGDMLDPWGQGTLVTVSS
VL: DIQMTQSPSSLSASVGDRVTITCQASQDITNYLNWYQQKPGKAPKLLIYDASNLETGVPSRFSGSGSGTDFTFTISSLQPEDIATYYCQQADNHPPWTFGGGTKVEIK
For the molecule B10, the Kd with hLRRC33-proTGFβ1 [1] was determined as 0.409 nM; with hLTBP3-proTGFβ1 [2], 0.316 nM; with hGARP-proTGFβ1 [3], 0.797 nM; with hLTBP1-proTGFβ1 [4], 0.34 nM.

B11: Ab30 (antibody, V domains shown)
VH: EVQLVESGGGLVQPGGSLRLSCAASGFTFSSFSMDWVRQAPGKGLEWVSYISPDASTIYYADSVKGRFTISRDNAKNSLYLQMNSLRAEDTAVYYCARGTLDYGDMLDPWGQGTLVTVSS
VL: DIQMTQSPSSLSASVGDRVTITCQASQDITNYLNWYQQKPGKAPKLLIYDASNLETGVPSRFSGSGSGTDFTFTISSLQPEDIATYYCQQADNHPPWTFGGGTKVEIK
In the case of B11, the Kd with hLRRC33-proTGFβ1 [1] stood at 0.535 nM; with hLTBP3-proTGFβ1 [2] it was 0.261 nM; with hGARP-proTGFβ1 [3], 0.833 nM; with hLTBP1-proTGFβ1 [4] it was 0.332 nM; with hLRRC33-proTGFβ1 [9], 0.14 nM; with hLTBP3-proTGFβ1 [10], 0.026 nM. The values for the Kd in the experiment with hGARP-proTGFβ1 [11] and with hLTBP1-proTGFβ1 [12] were 0.022 nM and 0.031 nM, respectively.

The values above are taken from US20240294623A1 (SCHOLAR ROCK, published 2024).
